Ends that are not written are not given here.
T1: human RXFP1 receptor (human, UniProt Q9HBX9 1-757)
T1 sequence: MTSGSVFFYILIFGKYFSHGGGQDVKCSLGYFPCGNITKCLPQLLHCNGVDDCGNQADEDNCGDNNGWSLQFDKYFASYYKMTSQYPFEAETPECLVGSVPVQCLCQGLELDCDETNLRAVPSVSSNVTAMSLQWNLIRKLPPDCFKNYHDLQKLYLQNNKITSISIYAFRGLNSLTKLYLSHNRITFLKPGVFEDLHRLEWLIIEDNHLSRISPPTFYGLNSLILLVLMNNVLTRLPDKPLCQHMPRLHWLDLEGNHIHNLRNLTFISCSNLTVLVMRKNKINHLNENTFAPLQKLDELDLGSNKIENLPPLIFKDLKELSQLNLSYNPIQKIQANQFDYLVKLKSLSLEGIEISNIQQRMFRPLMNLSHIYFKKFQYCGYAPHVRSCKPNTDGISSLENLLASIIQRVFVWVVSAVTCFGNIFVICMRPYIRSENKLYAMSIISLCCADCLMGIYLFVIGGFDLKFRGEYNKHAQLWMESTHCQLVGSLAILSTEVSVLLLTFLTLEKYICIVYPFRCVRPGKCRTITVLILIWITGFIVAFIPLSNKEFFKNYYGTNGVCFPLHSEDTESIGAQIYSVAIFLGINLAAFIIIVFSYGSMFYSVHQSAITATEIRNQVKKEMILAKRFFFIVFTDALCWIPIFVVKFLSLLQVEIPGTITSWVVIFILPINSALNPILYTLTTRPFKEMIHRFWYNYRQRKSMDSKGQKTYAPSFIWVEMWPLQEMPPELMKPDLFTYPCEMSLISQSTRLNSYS

B1: native, human RLN2 (ligand)
chain 1: QLYSALANKCCHVGCTKRSLARFC
chain 2: DSWMEEVIKLCGRELVRAQIAICGMSTWS
modifications: disulfide (positions not given here); not fully specified (bridges); ends not checked; also: two interchain and one intra-A-chain disulfide, pairing not given here
B2: RLN Analog 5 (other)
chain: SWMEEVIKLCGRELVRAQIAICGMSTWSGGGSGGSGGGQLYSALANKCCHVGCTKRSLARFCGGGGQGGGGQGGGGQGGGGQGGGGQEVQLLESGGGLVQPGGSLRLSCAASGRYIDETAVAWFRQAPGKEREFVAGIGGGVDITYYADSVKGRFTISRDNSKNTLYLQMNSLRPEDTAVYYCAARPGRPLITSKVADLYPYWGQGTLVTVSSPP
notes: Single-chain fusion: RLN2 B chain (desB1) - L2 - RLN2 A chain - (G4Q)5 L1 - VHH (C-terminal)
B3: RLN Analog 9 (other)
chain: SWMEEVIKLCGRELVRAQIAICGMSTWSGGGSGGSGGGQLYSALANKCCHVGCTKRSLARFCGGGGQGGGGQGGGGQGGGGQGGGGQEVQLLESGGGLVQPGGSLRLSCAASGRYIDETAVAWFRQAPGKGREFVAGIGGGVDITYYADSVKGRFTISRDNSKNTLYLQMNSLRPEDTAVYYCAARPGRPLITSKVADLYPYWGQGTLVTVSSPP
notes: as for B2
B4: RLN Analog 6 (other)
chain: SWMEEVIKLCGRELVRAQIAICGMSTWSGGGSGGSGGGQLYSALANKCCHVGCTKRSLARFCPGPQPGPQPGPQPGPQPGPQPGPQPGPQPGPQEVQLLESGGGLVQPGGSLRLSCAASGRYIDETAVAWFRQAPGKEREFVAGIGGGVDITYYADSVKGRFTISRDNSKNTLYLQMNSLRPEDTAVYYCAARPGRPLITSKVADLYPYWGQGTLVTVSSPP
notes: Single-chain fusion: RLN2 B chain (desB1) - L2 - RLN2 A chain - PGPQ-repeat L1 - VHH (C-terminal)
B5: RLN Analog 10 (other)
chain: SWMEEVIKLCGRELVRAQIAICGMSTWSGGGSGGSGGGQLYSALANKCCHVGCTKRSLARFCPGPQPGPQPGPQPGPQPGPQPGPQPGPQPGPQEVQLLESGGGLVQPGGSLRLSCAASGRYIDETAVAWFRQAPGKGREFVAGIGGGVDITYYADSVKGRFTISRDNSKNTLYLQMNSLRPEDTAVYYCAARPGRPLITSKVADLYPYWGQGTLVTVSSPP
notes: Single-chain fusion: RLN2 B chain (desB1) - L2 - RLN2 A chain - (PGPQ)8 L1 - VHH (C-terminal)
B6: RLN Analog 2 (other)
chain: EVQLLESGGGLVQPGGSLRLSCAASGRYIDETAVAWFRQAPGKEREFVAGIGGGVDITYYADSVKGRFTISRDNSKNTLYLQMNSLRPEDTAVYYCAARPGRPLITSKVADLYPYWGQGTLVTVSSPGPAPGPAPGPAPGPAPGPAPGPAPGPAPGPAQLYSALANKCCHVGCTKRSLARFCGGGSGGSGGGSWMEEVIKLCGRELVRAQIAICGMSTWS
notes: Single-chain fusion: VHH - (PGPA)8 L1 - RLN2 A chain - L2 - RLN2 B chain (desB1)

Columns and labels:
human RXFP2 receptor = human RXFP2 receptor (human, UniProt Q8WXD0 1-754); experiment: cell-based or functional assay
human RXFP1 receptor = biological target: T1, human RXFP1 receptor; experiment: cell-based or functional assay
rabbit serum albumin = biological target: T2, rabbit serum albumin (rabbit, UniProt P49065 25-608); experiment: SPR (Biacore 8K), albumin immobilized on CM5 chip, 25 C
T2 construct: Bought protein, immobilized on a CM5 chip by amine coupling; also called Rabbit SA
Description: (§1) The immobilization of the serum albumin to a Series S Sensor Chip CM5 surface is performed according to the manufacturer's instructions (Amine Coupling Kit BR-1000-50). Briefly, carboxyl groups on the sensor chip surfaces (flow cell 1 and 2) are activated by injecting 70 μL of a mixture containing 75 mg/mL EDC and 11.5 mg/mL NHS at 10 μL/min. Human, cynomolgus monkey, mouse, rat, pig, dog, cow and rabbit serum albumin are diluted in 10 mM sodium acetate pH 4.0 (BR-1003-49) at […] and then injected over the activated chip surfaces (flow cell 2, channel 1 to 8) at 10 μL/min for 180 sec (human, mouse, rat, pig and cow serum albumin are obtained from Sigma Aldrich (St. Louis, MO); cynomolgus monkey serum albumin is obtained from Hölzel Diagnostika (Cologne, Germany); dog serum albumin is obtained from Molecular Innovations (Novi, MI); and rabbit serum albumin is obtained from Fitzgerald Industries Intl. (Acton, MA). The various serum albumins are covalently immobilized through free amines onto a carboxymethyl dextran-coated sensor chip CM5 targeting a surface density of about 100 (62-145) RU. Excess reactive groups on the surfaces (flow cell 1 and 2) are deactivated by injecting 70 μL of 1 M ETA HCl—NaOH pH 8.5.
(§2) 150 μl of sample is individually injecting sequentially across the immobilized serum albumins on the chip's surface and dissociating for 600 sec at 50 μL/min flow rate at 25° C. The surface is regenerated by injecting 10 mM glycine-HCl pH 1.5 (BR-1003-54) at 50 μL/min for 100 sec. The resulting sensorgrams are analyzed using Biacore 8K Insight Evaluation Software (version 2.0.15.12933) 1:1 binding kinetics model fitting to calculate the binding kinetic parameter association rate (ka), dissociation rate (kd), and equilibrium dissociation constant (KD).

dog serum albumin = biological target: T3, dog serum albumin (dog, UniProt P49822 25-608); experiment: SPR (Biacore 8K), albumin immobilized on CM5 chip, 25 C, 1:1 kinetic fit
T3 construct: Bought protein, immobilized on a CM5 chip by amine coupling; also called Dog SA
Description: as §1, §2

human serum albumin = biological target: T4, human serum albumin (human, UniProt P02768 25-609); experiment: as above
T4 construct: Bought protein, immobilized on a CM5 chip by amine coupling; also called Human SA
Description: as §1, §2

mouse serum albumin = biological target: T5, mouse serum albumin (mouse, UniProt P07724 25-608); experiment: as above
T5 construct: Bought protein, immobilized on a CM5 chip by amine coupling; also called Mouse SA
Description: as §1, §2

[1] = biological target: T6, cynomolgus monkey serum albumin (cynomolgus monkey, UniProt A2V9Z4 25-608); experiment: as above
T6 construct: Bought protein, immobilized on a CM5 chip by amine coupling; also called Cyno SA
Description: as §1, §2

pig serum albumin = biological target: T7, pig serum albumin (pig, UniProt P08835 25-607); experiment: as above
T7 construct: Bought protein, immobilized on a CM5 chip by amine coupling; also called Pig SA
Description: as §1, §2

rat serum albumin = biological target: T8, rat serum albumin (rat, UniProt P02770 25-608); experiment: as above
T8 construct: Bought protein, immobilized on a CM5 chip by amine coupling; also called Rat SA
Description: as §1, §2

cow serum albumin [2] = biological target: T9, cow serum albumin (cow, UniProt P02769 25-607); experiment: SPR (Biacore 8K), albumin immobilized on CM5 chip, 25 C, steady state
T9 construct: Bought protein, immobilized on a CM5 chip by amine coupling; also called Cow SA
Description: as §1
150 μl of sample is individually injecting sequentially across the immobilized serum albumins on the chip's surface and dissociating for 600 sec at 50 μL/min flow rate at 25° C. The surface is regenerated by injecting 10 mM glycine-HCl pH 1.5 (BR-1003-54) at 50 μL/min for 100 sec. The resulting sensorgrams are analyzed using Biacore 8K Insight Evaluation Software ([…]).

cow serum albumin [3] = biological target: T9, cow serum albumin; experiment: SPR (Biacore 8K), albumin immobilized on CM5 chip, 25 C, 1:1 kinetic fit
Description: as §1, §2

| Binder | hRXFP2 EC50 nM GeoMean (cAMP CRE luciferase reporter assay, CHO cells expressing human RXFP2) (human RXFP2 receptor) [nM] | hRXFP1 EC50 nM GeoMean (cAMP CRE luciferase reporter assay, CHO cells expressing human RXFP1) (human RXFP1 receptor) [nM] | binding result (rabbit serum albumin) | Kd (dog serum albumin) [nM] | koff (dog serum albumin) [s⁻¹] | kon (dog serum albumin) [M⁻¹ s⁻¹] | Kd (human serum albumin) [nM] | koff (human serum albumin) [s⁻¹] | kon (human serum albumin) [M⁻¹ s⁻¹] | Kd (mouse serum albumin) [nM] | koff (mouse serum albumin) [s⁻¹] | kon (mouse serum albumin) [M⁻¹ s⁻¹] | Kd [1] [nM] | koff [1] [s⁻¹] | kon [1] [M⁻¹ s⁻¹] | Kd (pig serum albumin) [nM] | koff (pig serum albumin) [s⁻¹] | kon (pig serum albumin) [M⁻¹ s⁻¹] | Kd (rat serum albumin) [nM] | koff (rat serum albumin) [s⁻¹] | other results |
| --- | --- | --- | --- | --- | --- | --- | --- | --- | --- | --- | --- | --- | --- | --- | --- | --- | --- | --- | --- | --- | --- |
| B1 | 1.7 | 0.15 |  |  |  |  |  |  |  |  |  |  |  |  |  |  |  |  |  |  |  |
| B2 | 98 | 8.1 | no binding (tested: 1000 nM (highest concentration tested)) | 4.7 | 0.0034 | 710000 | 0.45 | 0.00026 | 580000 | 14 | 0.0083 | 590000 | 1.8 | 0.0015 | 820000 | 23 | 0.013 | 580000 | 10 | 0.0072 | kon (rat serum albumin): 700000 M⁻¹ s⁻¹; Kd (cow serum albumin [2]): 120 nM |
| B3 | 97 | 5.2 | no binding (tested: 1000 nM (highest concentration tested)) | 3.8 | 0.0036 | 950000 | 0.19 | 0.00018 | 950000 | 9.5 | 0.011 | 1.2e+06 | 0.86 | 0.00094 | 1.1e+06 | 14 | 0.012 | 870000 | 8.2 | 0.0075 | kon (rat serum albumin): 910000 M⁻¹ s⁻¹; Kd (cow serum albumin [2]): 84 nM |
| B4 | 39 | 15 | no binding (tested: 1000 nM (highest concentration tested)) | 4.1 | 0.002 | 480000 | 0.51 | 0.00024 | 470000 | 12 | 0.0076 | 630000 | 2.3 | 0.001 | 430000 | 24 | 0.0099 | 410000 | 9.7 | 0.0048 | kon (rat serum albumin): 490000 M⁻¹ s⁻¹; Kd (cow serum albumin [2]): 130 nM |
| B5 | 32 | 14 | no binding (tested: 1000 nM (highest concentration tested)) | 3.4 | 0.0021 | 630000 | 0.37 | 0.0002 | 550000 | 9.7 | 0.0072 | 740000 | 1.5 | 0.00077 | 510000 | 20 | 0.0096 | 490000 | 7.8 | 0.0049 | kon (rat serum albumin): 630000 M⁻¹ s⁻¹; Kd (cow serum albumin [2]): 100 nM |
| B6 |  |  | no binding (tested: 1000 nM (highest concentration tested)) | 1.4 | 0.0015 | 1e+06 | 0.1 | 9.5e-05 | 920000 | 3.8 | 0.0042 | 1.1e+06 | 0.45 | 0.00052 | 1.2e+06 | 8 | 0.0056 | 690000 | 3 | 0.0029 | Kd (cow serum albumin [3]): 50 nM; koff (cow serum albumin [3]): 0.049 s⁻¹; kon (cow serum albumin [3]): 980000 M⁻¹ s⁻¹; kon (rat serum albumin): 980000 M⁻¹ s⁻¹ |

— US20260125446A1 (Eli Lilly, published 2026)
